The domain aggregation screens of Martell et al. (2025)

Experiment: soluble fraction after stress (log2 fold change); higher = more stays soluble; pooled small domains, quantitative proteomics
Conditions: stress: 75 degC
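Also: 20 min heating vs room temperature control held 20 min.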

Row | Sequence | soluble fraction (log2)
1 | HMSEVIYVAEDNVGQRIDVFLVNKLVDASRANIQKNIVDGVILVNNKNVKANYKLRLGDVVEIRTQ | -1.38
2 | HMKIELSDNEKIIYDLLSSQHVLLSEIKDKAGLSNKAWDKSTKSLRKLGLIAVEKKDDDIYISKL | -0.0288
3 | HMADAGQTTAATELKQAPNAGSATISQLSAGQTLQIGTRQGAWYQVKTPQGEGWVRMLSVRLQ | -0.0302
4 | HMGVITVRPPIVVRDFAIALNLKPFQVIGNLMELNKVVSVSSVIEEADARKVAERHGYTLEIRH | -1.67
5 | HMKKPKTVLSEEQKEFIINQAQDGVSAYDIARILFPSVNVTNLSKEVIDVAEFIRDTDIKLLADSE | 0.00266
6 | HMSREEFLAGLEEALAGEVPASVIRENLNYYNSYISQEMAKGRTVDEIVDEIGEPRIVARTIIDSSEAAGE | 0.319
7 | HMANYHDIAADLRSKINHGFYEEEKKLPKQSELAADYQTSRVTIQKALNILQMEGIIYGKKGTGTFIRDSY | -0.32
8 | HMETSVDEVYKKIQAYIEAEDKHKPLSDQKLAEQLQSDGLKVSRRTVAKYREKLNIASSSKRKR | 0.242
9 | HMSIQMPDLSITPVTDAKKKIESLQLQYKEVGEYNDSVIAGYVIRTEPASGSYLNEDEEVIIYVSKG | -0.776
10 | HMVPISGADFEKLSDYILQKAGAGSIQVKELLAGLKGMHEKNLWKAIDYLLAEEKIRIDKGGNISVK | -0.322
11 | HMNGLPDLSRYTGVSIVDGLASVGSDSSFAYRAKIAETLGISDYKGSAGQNLEMIRKLGGKV | -0.517
12 | HMSGPAEDLLAIEGMDKELAYELAARGIRTRDELADQSLDELEAVPGLDPVRAGQLIMAARAHLFENAGQ | 0.0744
13 | HMDIDGVSENGRLILAALDKEALDFDTLAAETGIQESRLRTELTLLEIRKLIMKLPGQRYRLI | -2.39
14 | HMYSSIIGIAFTRAENKPAAPTGGSYSNPHPVDGNWKAAPYDGDGNLWYSIRHFNENVDIQDREWSDPTLG | -0.238
15 | HMKQVTVGGTINAGGARIYADSYGNGGGRQTFGSDPIYTVLQERNGYILTRWHKLSSGYTGWFKKSDVSA | -0.917
16 | HMKGIVFTEFLDLVEERFGLEMVDAIISQSKLESKGVYTSIGTYSFSELLQLLQNLKIQTGISIDNLLLI | -0.961
17 | HMNTEEKILEKEFLMLYSELGLQPKNIYELMENTGLKYEKLVEMLLQLQLKGLVEQPSYNYYSRL | -1.28
18 | HMLPDLLNGRVIPSPEKVIRARLNRGVWELLVQWVGRAPSDATWENLLEFKSAYPSVQLEDALF | -1.97
19 | HMPAVTEQTKTNLRRAFWQLYEQKPIQKITVKQITDLAGYNRGTFYLYFKDVYDLLDDIENK | -1.09
20 | HMDPTIAAIRKKLKNWTIVEVHMTREELEQAVIDGKVDVFLSSAGFYRRLVRFGARDLATAMSPAYPD | -0.68
21 | HMRRKNQVQSSYQKRENGTYTVRFFLSDDMGSIMDLQLMATREDMARALRERFLKDPEKIYGQIMQMLLR | -1.23
22 | HMSMRIDTNTLNYYVQNAQISLSVLRTKINNLDQFLSGEKQPTFNQLSEIAKKINVPTGLLLLNKS | -2.17
23 | HMRQSQEVSGGERYRRLTAYLDTHPFITRKEYSGITGLLKNKALNDLNLLVNKGYLEAMGRGSHKVYVRPM | -0.86
24 | HMPTITIQRGIILSSTTKGFIDELSHSQIKNAIVERLGEHHVMIHESQLDAVIKYAQKKEAVINIYL | -0.874
25 | HMSQLTVGTVVTGNASLQTQGLKLPSFASGSRPASPNIGQMIWNSSDAKAQIWNGSEWDDVG | -0.0784
26 | HMRESDQSTVELSLERTIQEALMVNPRTSSVEEFSFEWGTGRVKVSFIVYSVDGEPFTVDSIIE | -2.45

Row | Sequence | soluble fraction (log2)
27 | HMGPNPLTEREQEILQLARTGEPVARLAKRLFLSPGTVRNHLSSAIGKLGAANRVEAAQFATERGW | 0.0399
28 | HMSNMWVWSKLSGIQWMDAWEDRFHGNPNTVITRLKTNKTVRVEVYTETEQEALDIKKLFGGSIRKLV | -3.09
29 | HMLEQEQFESKLLKAINNINETQRIAFLMHRIDGKKYAEIASELNISVKAVEKRIHLALIELKKEIENF | -0.747
30 | HMTPGPFLVYITGAVERPNVLVTLDYGSRVIDALNAAGGSRIDANLDLVNLAQRLVDGDQIHVPTLR | -1.17
31 | HMGIAFDYDAGRFDQVPPNLVEKWQQAYPAVDVLSELRRMEAWASANPVNRKSNWQRFIVNWLTRAQDRAG | -0.859
32 | HMDTNKMLIVNSISNGMKRLQELQDPQLAEIQKTFSGLDEQKATSAQLAQINNIINNRIAEIEG | 0.23
33 | HMHETMGQIIKRLRKERGLTQESLAERLGVTFQAVSKWETDAGMPDVSQIVPLANAFGVRTDVLFGLEGRD | -0.744
34 | HMDTNPKVIITMDGVNVRSSASTGSDILFIAEKGEEYELISESGDFYKILYEGNKEGYVASWLVETSE | 0.239
35 | HMGVRPAALGFQKVRIEPQVGTFREASGDVITPRGLIHAEWKRDEENALHLHYTLPDGVAYA | -0.0752
36 | HMHSLGDQVFETIKELIVNNTYQPGELLQIDKLAAEFGVSTTPVREALLRLEGLGLVDIERNKAAVVT | 0.447
37 | HMTIDANAIEKMVLDLIGEHPNEWGRYRDGDKKVQGFFVGQIMKATSGQADGKIVNQILSQHAEA | -0.0337
38 | HMADPLQLLEQQRQDYIQAVTEYLNSHPNAKPIWDVMKKDAGYGDMKLTDIPLGILKKLYITLT | -0.65
39 | HMYYDDEELDDYRGKASDAYTAAEVEQFEEVLTTMRPEEVHGWLRSLQLRGVALPDALKDEAYMIVSEQAE | -0.0106
40 | HMVQIIQLQGTDKRLYELVAPLVMNPEILKQNYNYPFRTSEDFVWFVAVDKKKVIGFIPVEEKKKEYVI | -0.108
41 | HMVKDIEFSLPLEQDYYKVLISVKDSQGKRQVYEELHRAGDTVYAAVRYYGSGELEIHLNGKFYKTIK | -0.868
42 | HMNQKKFIQADYEDRLFDHLAFEVKDMEKIISMMRREKFTITDEPFRLSPTGSLIAFVEDPDRTLIELIER | -0.41
43 | HMPLDISDDSKAVLKLLKNDSNELNTVKSASGLSNKKWDKTIKELTKNKIVSVSKTEDGLYIHLI | 0.438
44 | HMRININNASARQIADALPGVGLKTARDIKDFQTTLSGERYTRLDQLHSIKRVDWDEIFKADLVRV | -0.0802
45 | HMGSDLVAWAQTRIGRHPEEAADVIAALIDRHGEARVRAASRSLLARKFAHASDLRTAIDAAIG | -0.365
46 | HMIERLVVSPAAGVFTKKMSVENNTRIDVGHVLGHVGETEVRSPFAGILQNYIAVDGERLTAHQPIAWLRS | -0.0936
47 | HMLGFELVGIRGNNPESTIIILERDDYRLVEQGQNINSSVIFSHIDGSRAYFFDGQTYTFLDI | -2.78
48 | HMARRSRADAVRNREALIDAAKAAFTEAGPDVSLEEIARRAGVGIGTLYRHFPTRDAVIEAVYR | -0.185
49 | HMNTAALSLQRRNEIKKWLLEEKTLTVAALSNRFNVTYETIRRDLEILEKEGFLKKVYGGAALNERV | -2.83
50 | HMDEKLAHKLVSDFRQAAASLERFPFRNPVLRSEVFTVEKYRKLVFDKYHILLYQVKDQVVYVEYVIDGRQ | -0.94
51 | HMLPQYELIKQYLRHQIETGEWPIGYRTPSEPKLAEQFSVSRMTARRALQELADQGLLSRTAGSGTFVAKP | -0.921
52 | HMPAPKPSGALSLKDEPLYAASDSKRRSGTVSGTYYRWDGENVNGRMRITNKQENIGKAGQVTGWITAH | 0.0409

Row | Sequence | soluble fraction (log2)
53 | HMRAMWENLFFQYKEGFLPEEYYKQGIATGIRLAGPKFVEMNIPMQKEFEDEVHRLLAEHEKSVK | -0.914
54 | HMPRRSYLDARKKLLGMLNSPDFNSGDQIPAERELSEVLGISRVTVRKIITELIDEGVLERRGNQGTWLVD | -1.01
55 | HMSEFAYPISLNGKTKFNLALSLALTKEEIEKEVLANADVQKFLNGQTPKKLIVVPGKIVNVV | -0.386
56 | HMNEAVVVPDVKGLTLDEADEFFKNSKLRYNVVDSVFSKDVAPGAIVELVPVAGSKVKENRIVFVTINAQ | -0.361
57 | HMVKDLEIETIRLNNLLASDAEEVLKSLGGAKPTYKAVAVPGSNSLVIEGTKADLIKLKSIINALEDGS | 0.00865
58 | HMGSNRPLALGDVVRIEGSKTLGTILELNAKDAVVALGALKTTLPLSRIHHASSQESQRLKRQATQAPLR | -0.203
59 | HMARAVSPLEAIPGVGPRRRQQLLKQLGGMQEVARAGVEDLSRVPGISRALAQQIYDAFHGD | -0.287
60 | HMEAKQMDAWIVSEAKRQGGKIEPAAAYELSRHTATDTSIASQEIAKLLMYVDFKRPVTREDVVELVSA | 0.0579
61 | HMDAEEISILLEKAVLQLPEKQKMIFQLKYFEDLSYKDIQIITGGSIGGLKANYHHAVTKIEKLLS | 0.123
62 | HMTPTFSNQDLIKAGLAGSPVAKRRRERLGELLGIGYGNAKQLLKRLDLFAIDRPTFERAVAQLDQEGK | -0.465
63 | HMVGDMLTQKDSEGLTAYLYQQGIISQREMLLLNGILKDRVLTGMEKGQRDSVRASMVQHLLAMLNMM | -1.94
64 | HMASPEIAFLNKFYQLSNTVNEISVMKIVKNYQEKYQQRISIEQMAKTLKTMGYAVRNNIISNIEEAPV | -1.53
65 | HMLPKAERREQLMAVARSVFAEQGYHTTSMEIIAETAGVSKPLLYQHFPSKLDLYLALLDAGID | -1.8
66 | HMEVPDTIIRLRELVAAMPEQWQKVYRLVFMEGLSKAKAGKKIGISDVRVGQLVKKINAAIAGDETLK | -1.01
67 | HMYHPGFEALREVARQGSFIKAARALGISGPAVSKQIKSLEARLNLVLLHRTTRAVTLTEAGQRLTEILD | -2.14
68 | HMAEELELFHRLISVTGVGPKGALGFLSQLKPQEIILAILSDDVKTLSKAPGVGRKTAQRVILELKDKF | -1.07
69 | HMIPLPEDVASMRERLALTPEKADELFGLEDGSFARYEHGEEKVPFVVFQLLWLLGKYPHLIGELR | -1.2
70 | HMLKHSKQRDAIEQFLATRYDHPTAETVYMNLREEYPKLSLATVYRNLSLLAELGNIQKIPTGNGPDRFDG | -0.343
71 | HMHGQGTYTSPDGTKYVGDWQDEKMHGQGTYTYPDGMKFVGEFKDNKPWNGTGYDKYGNVKATFSNGVGKS | -0.0508
72 | HMKALEGMRTVFTLADLATEPVTVEITVLEAFKYTTTLEIVQRPVLREWMTNPSMLIRVYHDASTAE | 0.0452
73 | HMFPELDEEEQKITKLLQAQNDLPANIIAVKTALNIGTTQAKLFSLEMKGVVKPYAGGFYHLL | -2.73
74 | HMAIDLPVTTVNGKDYYYYDVQPKETIFSLSQRLGISREEIISYNPGVDGGLKAYTRLYFPVESGL | -1.21
75 | HMKAMIIVMKPGADMATISKVLKTIETNGFKPHLSKGEETTVIGVIGDERKLNPDIFSTLEGVERIVPVA | 0.251
76 | HMALTQEQLGQRLQDARKSVALTQQEVAEDLGLSRESLAQIEAGSRSVNSLEIVRLARLYGRSLSSILLE | -0.893
77 | HMESPSGGHRIALAFDQGTARAVDATYARLTGAGYEGRTKPWDAPWGQRYATVFDPDGNSVDLFAALE | -0.445
